Article PMC11775607 (Nucleic Acids Research, 2025)

Target: recombinant WBSCR16-GST fusion protein (mouse, UniProt Q9CYF5 35-461)
Test: SPR

Kd: 37 nM
B1: recombinant MRPP3-His fusion protein (230–583 amino acids of MRPP3) (domain or fragment)
chain: LLLLEDIKKVITPSKKNYNDCIQGALLHQDVNTAWNLYQELLGHDIVPMLETLKAFFDFGKDIKDDNYSNKLLDILSYLRNNQLYPGESFAHSIKTWFESVPGKQWKGQFTTVRKSGQCSGCGKTIESIQLSPEEYECLKGKIMRDVIDGGDQYRKTTPQELKRFENFIKSRPPFDVVIDGLNVAKMFPKVRESQLLLNVVSQLAKRNLRLLVLGRKHMLRRSSQWSRDEMEEVQKQASCFFADDISEDDPFLLYATLHSGNHCRFITRDLMRDHKACLPDAKTQRLFFKWQQGHQLAIVNRFPGSKLTFQRILSYDTVVQTTGDSWHIPYDEDLVERCSCEVPTKWLCLHQKT
